Laboratory results reported in patent US20200392227A1 (LYVGEN BIOPHARMA, published 2020).
Read-outs that look alike come from different tables or passages of the source. One block for each binder: values may come before it.

Columns and labels:
Test in all cases: BLI
[1] = biological target: T1, human FcRn protein (MednaBio, E1032) (human, UniProt P55899 24-297; P61769 21-119)
T1 construct: Bought; assays at pH 6
Procedure: (§1) These IgG mutants were tested for binding to a panel of human Fc receptors (FcRs), including FcRn, using the Octet Red96 System (ForteBio, Model #Red96). Human FcR proteins were purchased commercially (FcRn, MednaBio, E1032; FcRI, MednaBio, E1031; FcRIIA, MednaBio, E1033; FcRIIB/C, MednaBio, E1034; FcRIIIA-F158, MednaBio, E1036; FcRIIIA-V158, MednaBio, E1035; FcRIIIB, MednaBio, E1037). All Fey receptor assays were performed at pH 7.2; all FcRn assays were performed at pH 6. The Fey receptors were loaded onto anti-penta-HIS1K (ForteBio, Cat #18-5122) biosensors at a concentration of 20 μg/mL. The loaded biosensors was then be dipped into an 8-point 1:3 dilution series of the test IgG molecules (including controls and the mutants described herein) in PBS with 0.1% BSA, 0.02% Tween-20 (pH 7.2) at a starting concentration of 300 nM. Kinetic analysis was performed using a 1:1 binding model and global fitting.

[2] = biological target: T2, human FcRIIA protein (MednaBio, E1033) (human, UniProt P12318 34-218, limits assumed)
T2 construct: Bought; also called FcγRIIA
T2 sequence (looked up): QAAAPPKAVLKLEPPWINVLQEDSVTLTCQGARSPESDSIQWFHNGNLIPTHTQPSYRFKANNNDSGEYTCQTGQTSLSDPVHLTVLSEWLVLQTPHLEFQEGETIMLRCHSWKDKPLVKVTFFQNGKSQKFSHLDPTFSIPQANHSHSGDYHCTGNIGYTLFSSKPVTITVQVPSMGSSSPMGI
Procedure: as §1

[3] = biological target: T1, human FcRn protein (MednaBio, E1032); remark: listed apart in the source
Summary of the method: (§2)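 Binding was measured by biolayer interferometry on an Octet Red96 System. Commercial human Fc receptor proteins were loaded at 20 μg/mL onto anti-penta-HIS biosensors, which were then dipped into an 8-point 1:3 dilution series of test IgG starting at 300 nM in PBS with 0.1% BSA and 0.02% Tween-20, at pH 7.2 for Fcγ receptors and pH 6 for FcRn. Kd, kon and koff were obtained by global fitting, with data fitted to a 1:1 binding model.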

[4] = biological target: T2, human FcRIIA protein (MednaBio, E1033); remark: listed apart in the source
Summary of the method: as §2

[5] = biological target: T1, human FcRn protein (MednaBio, E1032); remark: listed apart in the source
Procedure: as §1

[6] = biological target: T2, human FcRIIA protein (MednaBio, E1033); remark: listed apart in the source
Procedure: as §1

[7] = biological target: T1, human FcRn protein (MednaBio, E1032); remark: listed apart in the source
Summary of the method: as §2

[8] = biological target: T2, human FcRIIA protein (MednaBio, E1033); remark: listed apart in the source
Summary of the method: as §2

[9] = biological target: T1, human FcRn protein (MednaBio, E1032); remark: listed apart in the source
Summary of the method: as §2

[10] = biological target: T2, human FcRIIA protein (MednaBio, E1033); remark: listed apart in the source
Summary of the method: as §2

[11] = biological target: T1, human FcRn protein (MednaBio, E1032); remark: listed apart in the source
Summary of the method: as §2

[12] = biological target: T2, human FcRIIA protein (MednaBio, E1033); remark: listed apart in the source
Summary of the method: as §2

[13] = biological target: T1, human FcRn protein (MednaBio, E1032); remark: listed apart in the source
Summary of the method: as §2

[14] = biological target: T3, human FcRIIB/C protein (MednaBio, E1034) (human, UniProt P31994 43-217, limits assumed)
T3 construct: Bought as FcRIIB/C; also called FcγRIIB; CD32B
T3 sequence (looked up): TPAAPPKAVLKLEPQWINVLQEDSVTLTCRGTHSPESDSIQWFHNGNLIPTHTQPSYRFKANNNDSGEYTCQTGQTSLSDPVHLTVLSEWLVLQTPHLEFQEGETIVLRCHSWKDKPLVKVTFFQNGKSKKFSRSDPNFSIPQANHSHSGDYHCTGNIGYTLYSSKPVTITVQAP
Summary of the method: as §2

[15] = biological target: T2, human FcRIIA protein (MednaBio, E1033); remark: listed apart in the source
Summary of the method: as §2

[16] = biological target: T4, human FcRI protein (MednaBio, E1031) (human, UniProt P12314 16-288, limits assumed)
T4 construct: Bought; loaded on anti-penta-HIS biosensors; also called FcγRI
Summary of the method: as §2

T4 sequence (P12314 16-288 limits assumed): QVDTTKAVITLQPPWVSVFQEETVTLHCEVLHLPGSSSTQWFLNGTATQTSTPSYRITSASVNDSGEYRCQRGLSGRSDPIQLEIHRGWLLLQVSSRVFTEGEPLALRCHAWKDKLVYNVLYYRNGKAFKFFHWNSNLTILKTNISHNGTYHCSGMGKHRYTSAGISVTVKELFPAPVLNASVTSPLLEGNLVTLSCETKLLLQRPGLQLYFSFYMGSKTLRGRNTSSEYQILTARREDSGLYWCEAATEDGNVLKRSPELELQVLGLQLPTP

Kd [1]: 10 nM | koff [1]: 0.0099 s⁻¹ | kon [1]: 990000 M⁻¹ s⁻¹ | Kd [2]: 89 nM | koff [2]: 0.039 s⁻¹ | kon [2]: 440000 M⁻¹ s⁻¹ | Kd [3]: 10 nM | koff [3]: 0.0099 s⁻¹ | kon [3]: 990000 M⁻¹ s⁻¹ | Kd [4]: 89 nM | koff [4]: 0.039 s⁻¹ | kon [4]: 440000 M⁻¹ s⁻¹ | Kd [5]: 10 nM | koff [5]: 0.0099 s⁻¹ | kon [5]: 990000 M⁻¹ s⁻¹ | Kd [6]: 89 nM | koff [6]: 0.039 s⁻¹ | kon [6]: 440000 M⁻¹ s⁻¹ | Kd [7]: 10 nM | koff [7]: 0.0099 s⁻¹ | kon [7]: 990000 M⁻¹ s⁻¹ | Kd [8]: 89 nM | koff [8]: 0.039 s⁻¹ | kon [8]: 440000 M⁻¹ s⁻¹ | Kd [9]: 10 nM | koff [9]: 0.0099 s⁻¹ | kon [9]: 990000 M⁻¹ s⁻¹ | Kd [10]: 89 nM | koff [10]: 0.039 s⁻¹ | kon [10]: 440000 M⁻¹ s⁻¹ | Kd [11]: 10 nM | koff [11]: 0.0099 s⁻¹ | kon [11]: 990000 M⁻¹ s⁻¹ | Kd [12]: 89 nM | koff [12]: 0.039 s⁻¹ | kon [12]: 440000 M⁻¹ s⁻¹
B1: wild-type human IgG2 control (antibody)
heavy: EVQLVQSGAEVKKPGESLRISCKGSGYSFSTYWISWVRQMPGKGLEWMGKIYPGDSYTNYSPSFQGQVTISADKSISTAYLQWSSLKASDTAMYYCARGYGIFDYWGQGTLVTVSSASTKGPSVFPLAPCSRSTSESTAALGCLVKDYFPEPVTVSWNSGALTSGVHTFPAVLQSSGLYSLSSVVTVPSSNFGTQTYTCNVDHKPSNTKVDKTVERKCCVECPPCPAPPVAGPSVFLFPPKPKDTLMISRTPEVTCVVVDVSHEDPEVQFNWYVDGVEVHNAKTKPREEQFNSTFRVVSVLTVVHQDWLNGKEYKCKVSNKGLPAPIEKTISKTKGQPREPQVYTLPPSREEMTKNQVSLTCLVKGFYPSDIAVEWESNGQPENNYKTTPPMLDSDGSFFLYSKLTVDKSRWQQGNVFSCSVMHEALHNHYTQKSLSLSPGK
light: SYELTQPPSVSVSPGQTASITCSGDNIGDQYAHWYQQKPGQSPVLVIYQDKNRPSGIPERFSGSNSGNTATLTISGTQAMDEADYYCATYTGFGSLAVFGGGTKLTVLGQPKAAPSVTLFPPSSEELQANKATLVCLISDFYPGAVTVAWKADSSPVKAGVETTTPSKQSNNKYAASSYLSLTPEQWKSHRSYSCQVTHEGSTVEKTVAPTECS
notes: Control IgG

Kd [13]: 13 nM | koff [13]: 0.009 s⁻¹ | kon [13]: 690000 M⁻¹ s⁻¹
B2: anti-CD137 IgG4 with Fc variant G4m19 (antibody)
heavy: EVQLVQSGAEVKKPGESLRISCKGSGYSFSTYWISWVRQMPGKGLEWMGKIYPGDSYTNYSPSFQGQVTISADKSISTAYLQWSSLKASDTAMYYCARGYGIFDYWGQGTLVTVSSASTKGPSVFPLAPCSRSTSESTAALGCLVKDYFPEPVTVSWNSGALTSGVHTFPAVLQSSGLYSLSSVVTVPSSSLGTKTYTCNVDHKPSNTKVDKRVESKYGPPCPPCPAPEFLSVFLFPPKPKDTLMISRTPEVTCVVVDVEQEDPEVQFNWYVDGVEVHNAKTKPREEQFNSTYRVVSVLTVLHQDWLNGKEYKCKVSNKGFPSSIEKTISKAKGQPREPQVYTLPPSQEEMTKNQVSLTCLVKGFYPSDIAVEWESNGQPENNYKTTPPVLDSDGSFFLYSRLTVDKSRWQEGNVFSCSVMHEALHNHYTQKSLSLSLGK
light: SYELTQPPSVSVSPGQTASITCSGDNIGDQYAHWYQQKPGQSPVLVIYQDKNRPSGIPERFSGSNSGNTATLTISGTQAMDEADYYCATYTGFGSLAVFGGGTKLTVLGQPKAAPSVTLFPPSSEELQANKATLVCLISDFYPGAVTVAWKADSSPVKAGVETTTPSKQSNNKYAASSYLSLTPEQWKSHRSYSCQVTHEGSTVEKTVAPTECS
notes: copies: 2 + 2

Kd [14]: 240 nM | koff [14]: 0.03 s⁻¹ | kon [14]: 130000 M⁻¹ s⁻¹ | Kd [13]: 19 nM | koff [13]: 0.009 s⁻¹ | kon [13]: 480000 M⁻¹ s⁻¹ | Kd [15]: 660 nM | koff [15]: 0.038 s⁻¹ | kon [15]: 57000 M⁻¹ s⁻¹ | Kd [16]: 46 nM | koff [16]: 0.017 s⁻¹ | kon [16]: 380000 M⁻¹ s⁻¹
B3: anti-CD137 IgG4 with Fc variant G4m25 (antibody)
heavy: EVQLVQSGAEVKKPGESLRISCKGSGYSFSTYWISWVRQMPGKGLEWMGKIYPGDSYTNYSPSFQGQVTISADKSISTAYLQWSSLKASDTAMYYCARGYGIFDYWGQGTLVTVSSASTKGPSVFPLAPCSRSTSESTAALGCLVKDYFPEPVTVSWNSGALTSGVHTFPAVLQSSGLYSLSSVVTVPSSSLGTKTYTCNVDHKPSNTKVDKRVESKYGPPCPPCPAPEFLGPSVFLFPPKPKDTLMISRTPEVTCVVVDVSQEDPEEQFNWYVDGVEVHNAKTKPREEQFNSTYRVVSVLTVLHQDWLNGKEYKCKVSNKGLPSSIEKTISKAKGQPREPQVYTLPPSQEEMTKNQVSLTCLVKGFYPSDIAVEWESNGQPENNYKTTPPVLDSDGSFFLYSRLTVDKSRWQEGNVFSCSVMHEALHNHYTQKSLSLSLGK
light: SYELTQPPSVSVSPGQTASITCSGDNIGDQYAHWYQQKPGQSPVLVIYQDKNRPSGIPERFSGSNSGNTATLTISGTQAMDEADYYCATYTGFGSLAVFGGGTKLTVLGQPKAAPSVTLFPPSSEELQANKATLVCLISDFYPGAVTVAWKADSSPVKAGVETTTPSKQSNNKYAASSYLSLTPEQWKSHRSYSCQVTHEGSTVEKTVAPTECS
notes: copies: 2 + 2

Kd [14]: 310 nM | koff [14]: 0.039 s⁻¹ | kon [14]: 130000 M⁻¹ s⁻¹ | Kd [13]: 23 nM | koff [13]: 0.01 s⁻¹ | kon [13]: 450000 M⁻¹ s⁻¹ | Kd [16]: 66 nM | koff [16]: 0.025 s⁻¹ | kon [16]: 370000 M⁻¹ s⁻¹
B4: anti-CD137 IgG4 with Fc variant G4m27 (antibody)
heavy: EVQLVQSGAEVKKPGESLRISCKGSGYSFSTYWISWVRQMPGKGLEWMGKIYPGDSYTNYSPSFQGQVTISADKSISTAYLQWSSLKASDTAMYYCARGYGIFDYWGQGTLVTVSSASTKGPSVFPLAPCSRSTSESTAALGCLVKDYFPEPVTVSWNSGALTSGVHTFPAVLQSSGLYSLSSVVTVPSSSLGTKTYTCNVDHKPSNTKVDKRVESKYGPPCPPCPAPEFLGPSVFLFPPKPKDTLMISRTPEVTCVVVDVEQEDPEVQFNWYVDGVEVHNAKTKPREEQFNSTYRVVSVLTVLHQDWLNGKEYKCKVSNKGLPSSIEKTISKAKGQPREPQVYTLPPSQEEMTKNQVSLTCLVKGFYPSDIAVEWESNGQPENNYKTTPPVLDSDGSFFLYSRLTVDKSRWQEGNVFSCSVMHEALHNHYTQKSLSLSLGK
light: SYELTQPPSVSVSPGQTASITCSGDNIGDQYAHWYQQKPGQSPVLVIYQDKNRPSGIPERFSGSNSGNTATLTISGTQAMDEADYYCATYTGFGSLAVFGGGTKLTVLGQPKAAPSVTLFPPSSEELQANKATLVCLISDFYPGAVTVAWKADSSPVKAGVETTTPSKQSNNKYAASSYLSLTPEQWKSHRSYSCQVTHEGSTVEKTVAPTECS
notes: copies: 2 + 2
